Reference: patent US12077763B2, “RNA-based control of powdery mildew” (Greenlight Biosciences, Inc., priority 2021, dated 2024)

B1: GS1834: dsRNA trigger SEQ ID NO 189; gene target Tubulin beta-2 chain (nucleic acid)
DNA: CTCGTCCATTCCTTCTCCAGTATACCAATGTAAGAAAGCTTTTCTTCTAAACATAGCTGTGAATTGATCCCCAACGCGCTTAAAGAGTTCTTGAATGGAAGTGGAGTTTCCTACAAATGTAGATGACATCTTAAGACCACGAGGTGGAATAGAGCAGAGTGCGGTTTGTACATTATTAGGGATCCACTCGACAAAATATGCAGAGTTCTTATTTTGTACATTGCGCATTTGGTCCTCTACTTCTTTCATTGATACCTTACCTCGAAATATTGCTGAACATGTTAAATAGCGCCCGTTTCGGAAATCAGACGCTGCCATCATATTTTTGGGGTCGTACATTTGCTGAGTCAACTCGGGAACAGTAACTGCGCGGAAAGAGTGGGCACCGCGACTTGTTAGAGGAGCAAATCCAACCATAAAAAAATGAAGACGAGGAAATGGAACCATGTTAACTGCTAACTTTCGAAGATCTGAGTTGAGTTGACCTGGGAAACGAAGACATGTTGTTACACCTGACATGACTGCAGATACCAAATGATTCAAATCACCATATGATGGGTTTGAAAGCTTTAAAGTTCTCATACATATTT
B2: GS1827: dsRNA trigger SEQ ID NO 195; gene target Ubiquitin-like modifier-activating enzyme 1 (nucleic acid)
DNA: AAAGTTATCGCCGAAGTCGCAGAATATATATCCAAATAATCCAAAGGTTTCAGTTATTACTACATATATTCCCTTCTCATGTAGATACTGGGAGATTATGAGCTGGTCTTTCAGTGGAATATCTGTCAATATTACAGCTTGATATGAATCAAACTGGGAGAGATCAGAAACTAAGCTTGTGGAGCTGTGAATCTTAACAGGGGTGTAAGCATTTAGTTCCGAAACTCGTTGAGCTGAGACAATATCTCTAGGTTTTCCTATATCTTCTGGGTTAAGAAAGAATTGAGATGATAGGTCAGCGATAGTTGCGGGAGCGGGATCGTATAATGTTAGACTTTTAACTCCAGCCAGAGCTATATTCTTAGCTATTTCGATACCAAGACCTTTCAAGCCAATAATAAGAATATTCGATGCACTCATTCGTTTCATAGCCTCGTGTCCAAGAACGTAGAGTTGCCTACTGTATAAAGACTCATCGATAACATTATTATTTTCTTGTGACTCATCAACTTCCATCTTCATCTTGTCTTCAATTTTACTGACTTCACTCATCTTGAATACTTCCTGTAAATCCAATTTACATCAACTGAATTA
B3: GS1830: dsRNA trigger SEQ ID NO 178; gene target Regulator of nonsense transcripts 1 homolog (nucleic acid)
DNA: CCGAGTTAAAGCTACATTTAAACGTCTTGGGTCACTTAAGAACCCAATTCCTTGATGGTCATTTGATCGAACACATGATAAAACAATGAAGTCTTTTTCACGCCCTTGAAAAGCATCGACTGAAGCAACTTCAATTTCCCTGTAGTTTTCTTTTTTAAAAGTACCAGTGTTTTGCATAGAGCTTACAACGTAACTTCGCTGACCTTCGTAAGGTGTAATAACTCCAATATCGGCAGGCTGAACACCTGCTTTGAAAAATCGGGTTACTATTTTTTCAACATTAGAAGCCTCTGTGCGATTAAGATATGATGTTCCTGAAGCAGAAATCTCTTCATTTCCGAGATTAGACCAAAACATCATCGGTGTATCTCCAACTGGCCAAGGAAAGTCAACTTCATCTCTAAGCCGCTCTTGCATCGTCACACCATTCTGGAGAGTTCCTTCATAGAACATATTTGACGGAAACTCTGATAGGCATGGATGCATACGATACTGGATATTGAGTCGAATAGGGTGCATTTCCAACATGACTAGACGTTCAAAAAGTGACTGATTTAAACCTGCTTTGGCAGCTTTTTTATTCATAATAAC
B4: GS1836: dsRNA trigger SEQ ID NO 121; gene target Integral membrane protein/Pth11 homolog (nucleic acid)
DNA: GCTTTTCAATGTCGACCTGCAAACTACCTTTGGCAACAACTTGATTCAAAATTATATTCTGGAAGCTGTTTGAGCAAGGAGAGTATAGCCGATATTATATATGCTCATGCATCTATAAGTTGTTTAATTGACTGGATCTTTGGGATATTACCGATTTTAATTCTCTGGAAACTCGACATGAAGTTCAAGACCAAGCTCTCTATAATGATCGTTCTTTCATTAAGTATAGTAGCCTCTATAGCTACTGTTATACGTATTATTTACCTCCATATTCTTAAGAATGTGTCACAATCCGGTTGGGATGGTTTTGGATTAATAAAATGGTCTTTACTAGAACCAGCCATTGCCTTGACAGCTGCAAATATTGCAACTCTCAGGCCACTTACGCAAAAGTTATTTTCAAAAAAACGACGACCATCTAAATCACAACCACCTAAGCTTTCTCTCAATGCTATTCGGGGCTTAAGTCGGAAGTCTTCAGTATGTTGTTCAAGTGAATTTGCAGATATGTTAGGGCTAGCAGTATCACCTGGCGTGAAAACTCGAGTCTATGCTGATAGAAGACTTGATAACACTATCCAAAAAAGA
B5: GS1837: dsRNA trigger SEQ ID NO 199; gene target UDP-glucose: glycoprotein glucosyltransferase 1 (nucleic acid)
DNA: AAAATCTAGGCAAATCCTTGAAAAACTCAGAGCTTTTTTTTTCAATAAAATTCAAGTCAAAAAAATTCAGATCTTTTCGATTTTCAGGAATAATCAATTTATTTCTGCGATTTATCGCTTGATTTAAAAATATACTAGGCACCCAAAAATCTTGACTTCTCACATTTTCTGTCCCAAGGACAATAGTTTGCTGAATTAATTGTAGATCTGTATATATCTGTTGACTCATTTTCTGAAGCCAGAATTCATCTTTCGGTATAACAACGCCATTAATGATAACTGGGGGAACAAGGTCATCTGCACAAATCCTGTCTACCCATTTTTGGGACGATTGAATTCGACTCTCGAGCTCATCTGATTTCAAAACTTCGTCGAAAATTATTCGGGTTTTATTAGTCTTAATTTTTGCTTTCTGGGTGATTTGGTCGAATACATCCTTACTGTTTAAGCTAAGCTTTGATTCATTTTGTGACCGTAAATATGCTATTGCAGTTTGTAATCCATAAATTTCAATAAGGTGATAAATTACTTTTGCTTCGATTGCAGCATTTGAGTTTCTGATGACGGGAATGAGACCAATTCGGAT
B6: GS1835: dsRNA trigger SEQ ID NO 159; gene target Probable glutamine--fructose-6-phosphate aminotransferase [isomerizing] (nucleic acid)
DNA: CCGATGACAAGGGGAGATCCTTTTCTTGCCGCAATTACTTCATGGGGATAATGGACTGATTTTAGTAGAAGTCCAAATGCTCCTTGCAGCTCCTTGATGACGGCCTTAGCTAAGTCCGTAAAAGTAATTGTTGGGTGCTGGTCATATATATACTTAGCAAGCTTGGCAATACACTCAGTATCAGTCTCTGTCTCAAATTTATGGCCCTTTGAGATAAGTAGGGTTTTGAGCTCTTTATAGTTTATTATGATTCCATTATGAACAACACTGAACTGCCATTTGGGGTCACTACGATGAGGATGGCAATTCAATCTTGATGGAGGGCCATGGGTGGCCCATCTAGTATGTGCAATACCAGCATGGGAGTCAAAAACTTTGGAGTTATCTAGTTGCGACTCCTGGACAAGTTGCTTTAATTTTGCAACCTTTCCAACTTCTTTGAACGCAAAAACTTCATCTTTTTCATCCCCGTCAATTGCGAGCCCGGCACTGTCGTAGCCACGGTATTCCAAGCGAGAGAGACCGTTGACAAGTGTTTCAAGAATGTGTTTGCGATCCTTTTCAATGAGATAATTAATATAGCCAAAGAT
B7: GS1831: dsRNA trigger SEQ ID NO 115; gene target glycosyl_partial (nucleic acid)
DNA: CTGAATTGTTTTGAGACTGTTTATTACGAAACCCATTACTTTTGTCTTTGATATGGAATCTCCGATTGACAAACAATGTTTCGTCAGGTTTTGGTTCATAGCTAGTGGTCATTCCAATGGCACCTCTAATGTTATTAATAACAGTATTGAGTGATTGCTCAGGCATTAAACAAGCTGGGCGACATTCGGGTATATTTGAAACAGATTGTAAAATTTTGTCACGAAGGGTTGTTTCGTCTTGAAAATTTGGTCGCAAGCATAACTGGAGATTACGAAGTTGTTTTACTAATATTTCAAATACATCAAGCAATGGCTTTTCAGAATGTTGACTAGAAAGAAGTTGCAAGGTAATTTTGTTCCATTCATTCTGTGCATTTCTCTGTTTTTGTGGTCCTTCAAATTGGCCAAGCATTAATTGAGAGATTTCATCGATCTGTATTGCATTGCTACAGCGATGATGGTAGAAGTCTAATGCTTCTTTGTTAAACATTAAGAACATAGAAGACAGGATGTCTTTTTCATTTTCGATGCTCGCTAATTCGCATTTTTTCAAAAAGATGTTTAACTTGAAGTTATAGCTATCATCTTTT
B8: GS1833: dsRNA trigger SEQ ID NO 151; gene target Eukaryotic translation Initiation factor 3 subunit G (nucleic acid)
DNA: ACCTCACTAGGGCCTTCAGTAGTTTCATTAATACTAGTTAAAGCATCTCCGCTGTTTTCTTCACCAATTGGAGCCATTGTATCTTTAAAGGGACATCGGGCTGTAAAATGCTCTCCATTACATATACGACATTTAACTTTCTTATCTTTTAATTTGTCTTTCATTATTCCTGCCTCTGTTTTTTCATCTTTGGCATCTTTTTTCCAGTTGGCACTCGGTCTGAAAGTTATATTTTCACCAATAGATGTGGTTGAGCTATCTGGTCCGGGTTGATCTTTAGCAGAGAGTCCAAATTTACTCCACTGCTTTCTCTCGGCAACTCTAGGATTTACAATTTCTTTGTGTGTAGTGAAACGAATTCGTCTGGTATATTTGATCTTTTTTCCATCTTCATCGATTCGATAACTTACGATAGTTTGAGAGCCATCTTTATTAGTTGTTGTAGTTGTAGGAGGAAGTTGTTCTTCAATCCGGTCAACGGAAAGATCTTCATCGTCGGCCCAGTCAGCGCGAACAGATTGTTTAGACATTTTTCAAAATATTTTAATTAAATACTTGCAAATGGAAAGCTTGTAAATTCAAGCAAGTAT

Test system: E. necator
Assay: Leaf disc assay, dry inoculum (settling tower), decrease in disease severity / hyphal growth (Example 2)
Conditions: decrease in disease severity (hyphal growth) relative to untreated control, value ± SE; for % decrease =/− SE TP1: time point 1 (untreated control hyphal growth ≥50%); for % decrease =/− SE TP2: time point 2

Molecule | % decrease =/− SE TP1 [%] | % decrease =/− SE TP2 [%]
B1 | 8 ± 4 | 15 ± 6
B2 | 45 ± 2 | 40 ± 4
B3 | 36 ± 4 | 24 ± 5
B4 | 23 ± 6 | 22 ± 6
B5 | 15 ± 7 | 18 ± 8
B6 | 25 ± 6 | 24 ± 6
B7 | 34 ± 6 | 19 ± 6
B8 | 12 ± 5 | 7 ± 5
